These results are taken from patent publication US20210388087A1 (Chugai, published 2021).

Residue numbers refer to the chain shown, from its start. Names may count otherwise.

The chains are these.
B1: CE115HA000 Y100P (antibody, human IgG1, kappa, L234A L235A, N297A, name in Kabat numbering)
heavy: QVQLVESGGGVVQPGRSLRLSCAASGFTFSNAWMHWVRQAPGKGLEWVAQIKAKSNNYATYYAESVKGRFTISRDDSKNSLYLQMNSLKTEDTAVYYCRYVHYGAPYGVDAWGQGTTVTVSSASTKGPSVFPLAPSSKSTSGGTAALGCLVKDYFPEPVTVSWNSGALTSGVHTFPAVLQSSGLYSLSSVVTVPSSSLGTQTYICNVNHKPSNTKVDKKVEPKSCDKTHTCPPCPAPEAAGGPSVFLFPPKPKDTLMISRTPEVTCVVVDVSHEDPEVKFNWYVDGVEVHNAKTKPREEQYASTYRVVSVLTVLHQDWLNGKEYKCKVSNKALPAPIEKTISKAKGQPREPQVYTLPPSRCELTKNQVSLSCAVKGFYPSDIAVEWESNGQPENNYKTTPPVLDSDGSFFLVSKLTVDKSRWQQGNVFSCSVMHEALHNHYTQKSLSLSPDYKDDDDK
chain: EPKSSDKTHTCPPCPAPELLGGPSVFLFPPKPKDTLMISRTPEVTCVVVDVSHEDPEVKFNWYVDGVEVHNAKTKPREEQYNSTYRVVSVLTVLHQDWLNGKEYKCKVSNKALPAPIEKTISKAKGQPREPQVCTLPPSRDELTKNQVSLWCLVKGFYPSDIAVEWESNGQPENNYKTTPPVLDSDGSFFLYSKLTVDKSRWQQGNVFSCSVMHEALHNRYTQKSLSLSP
light: DIVMTQSPLSLPVTPGEPASISCRSSQSLVHSNRNTYLHWYQQKPGQAPRLLIYKVSNRFSGVPDRFSGSGSGTDFTLKISRVEAEDVGVYYCGQGTQVPYTFGQGTKLEIKRTVAAPSVFIFPPSDEQLKSGTASVVCLLNNFYPREAKVQWKVDNALQSGNSQESVTEQDSKDSTYSLSSTLTLSKADYEKHKVYACEVTHQGLSSPVTKSFNRGEC
notes: one-arm antibody
B2: CE115HA000 Y100aL (antibody, human IgG1, kappa, L234A L235A, N297A, name in Kabat numbering)
heavy: B1 heavy with P106Y, Y107L
chain: B1 chain
light: B1 light
notes: one-arm antibody
B3: CE115HA000 Y100S (antibody, human IgG1, kappa, L234A L235A, N297A, name in Kabat numbering)
heavy: B1 heavy with P106S
chain: B1 chain
light: B1 light
notes: one-arm antibody
B4: CE115HA000 Y100aD (antibody, human IgG1, kappa, L234A L235A, N297A, name in Kabat numbering)
heavy: B1 heavy with P106Y, Y107D
chain: B1 chain
light: B1 light
notes: one-arm antibody
B5: CE115HA000 Y100aF (antibody, human IgG1, kappa, L234A L235A, N297A, name in Kabat numbering)
heavy: B1 heavy with P106Y, Y107F
chain: B1 chain
light: B1 light
notes: one-arm antibody
B6: CE115HA000 Y100aK (antibody, human IgG1, kappa, L234A L235A, N297A, name in Kabat numbering)
heavy: B1 heavy with P106Y, Y107K
chain: B1 chain
light: B1 light
notes: one-arm antibody
B7: CE115HA000 Y100aA (antibody)
heavy: B1 heavy with P106Y, Y107A
Fc: B1 chain
light: B1 light
notes: one-arm antibody
B8: CE115HA000 Y100aG (antibody, human IgG1, kappa, L234A L235A, N297A, name in Kabat numbering)
heavy: B1 heavy with P106Y, Y107G
chain: B1 chain
light: B1 light
notes: one-arm antibody
B9: CE115HA000 Y100Q (antibody, human IgG1, kappa, L234A L235A, N297A, name in Kabat numbering)
heavy: B1 heavy with P106Q
chain: B1 chain
light: B1 light
notes: one-arm antibody
B10: CE115HA000 Y100V (antibody, human IgG1, kappa, L234A L235A, N297A, name in Kabat numbering)
heavy: B1 heavy with P106V
chain: B1 chain
light: B1 light
notes: one-arm antibody
B11: CE115HA000 Y100aS (antibody, human IgG1, kappa, L234A L235A, N297A, name in Kabat numbering)
heavy: B1 heavy with P106Y, Y107S
chain: B1 chain
light: B1 light
notes: one-arm antibody
B12: CE115HA000 Y100aQ (antibody, human IgG1, kappa, L234A L235A, N297A, name in Kabat numbering)
heavy: B1 heavy with P106Y, Y107Q
chain: B1 chain
light: B1 light
notes: one-arm antibody
B13: CE115HA000 Y100W (antibody, human IgG1, kappa, L234A L235A, N297A, name in Kabat numbering)
heavy: B1 heavy with P106W
chain: B1 chain
light: B1 light
notes: one-arm antibody
B14: dBBDu183H P61V / dBBDu072L (antibody, name in Kabat numbering, V domains shown)
VH: QVQLVESGGGLVQPGRSLRLSCAASGFTFSNAWMHWVRQAPGKGLEWVAQIKDKGNAYAAYYAVSVKGRFTISRDDSKNSIYLQMNSLKTEDTAVYYCHYVHYASASTVLPAFGVDAWGQGTTVTVSS
VL: DIVMTQSPLSLPVTPGEPASISCQASQELVHMNRNTYLHWYQQKPGQAPRLLIYKVSNRFPGVPDRFSGSGSGTDFTLKISRVEAEDVGVYYCAQGTSVPFTFGQGTKLEIK
notes: as m1, one VH change
B15: dBBDu183H A100fS / dBBDu072L (antibody, name in Kabat numbering, V domains shown)
VH: B14 VH with V64P, A112S
VL: B14 VL
notes: as m1, one VH change
B16: dBBDu183H A102G / dBBDu072L (antibody, name in Kabat numbering, V domains shown)
VH: B14 VH with V64P, A117G
VL: B14 VL
notes: as m1, one VH change
B17: dBBDu183H A100G / dBBDu072L (antibody, name in Kabat numbering, V domains shown)
VH: B14 VH with V64P, A106G
VL: B14 VL
notes: as m1, one VH change
B18: dBBDu183H A100fH / dBBDu072L (antibody, name in Kabat numbering, V domains shown)
VH: B14 VH with V64P, A112H
VL: B14 VL
notes: as m1, one VH change
B19: dBBDu183H D101N / dBBDu072L (antibody, name in Kabat numbering, V domains shown)
VH: B14 VH with V64P, D116N
VL: B14 VL
notes: as m1, one VH change
B20: dBBDu183H A98S / dBBDu072L (antibody, name in Kabat numbering, V domains shown)
VH: B14 VH with V64P, A104S
VL: B14 VL
notes: as m1, one VH change
B21: dBBDu183H A98E / dBBDu072L (antibody, name in Kabat numbering, V domains shown)
VH: B14 VH with V64P, A104E
VL: B14 VL
notes: as m1, one VH change
B22: dBBDu183H F100gH / dBBDu072L (antibody, name in Kabat numbering, V domains shown)
VH: B14 VH with V64P, F113H
VL: B14 VL
notes: as m1, one VH change
B23: dBBDu183H A100fG / dBBDu072L (antibody, name in Kabat numbering, V domains shown)
VH: B14 VH with V64P, A112G
VL: B14 VL
notes: as m1, one VH change
B24: dBBDu183H A100K / dBBDu072L (antibody, name in Kabat numbering, V domains shown)
VH: B14 VH with V64P, A106K
VL: B14 VL
notes: as m1, one VH change
B25: dBBDu183H D101Q / dBBDu072L (antibody, name in Kabat numbering, V domains shown)
VH: B14 VH with V64P, D116Q
VL: B14 VL
notes: as m1, one VH change
B26: dBBDu183H A100Q / dBBDu072L (antibody, name in Kabat numbering, V domains shown)
VH: B14 VH with V64P, A106Q
VL: B14 VL
notes: as m1, one VH change
B27: dBBDu183H A100R / dBBDu072L (antibody, name in Kabat numbering, V domains shown)
VH: B14 VH with V64P, A106R
VL: B14 VL
notes: as m1, one VH change
B28: dBBDu183H D101S / dBBDu072L (antibody, name in Kabat numbering, V domains shown)
VH: B14 VH with V64P, D116S
VL: B14 VL
notes: as m1, one VH change
B29: dBBDu183H D101E / dBBDu072L (antibody, name in Kabat numbering, V domains shown)
VH: B14 VH with V64P, D116E
VL: B14 VL
notes: as m1, one VH change
B30: dBBDu183H A100E / dBBDu072L (antibody, name in Kabat numbering, V domains shown)
VH: B14 VH with V64P, A106E
VL: B14 VL
notes: as m1, one VH change
B31: dBBDu183H A100N / dBBDu072L (antibody, name in Kabat numbering, V domains shown)
VH: B14 VH with V64P, A106N
VL: B14 VL
notes: as m1, one VH change
B32: dBBDu183H D101T / dBBDu072L (antibody, name in Kabat numbering, V domains shown)
VH: B14 VH with V64P, D116T
VL: B14 VL
notes: as m1, one VH change
B33: dBBDu183H F100gE / dBBDu072L (antibody, name in Kabat numbering, V domains shown)
VH: B14 VH with V64P, F113E
VL: B14 VL
notes: as m1, one VH change
B34: dBBDu183H A102S / dBBDu072L (antibody, name in Kabat numbering, V domains shown)
VH: B14 VH with V64P, A117S
VL: B14 VL
notes: as m1, one VH change
B35: dBBDu183H F100gQ / dBBDu072L (antibody, name in Kabat numbering, V domains shown)
VH: B14 VH with V64P, F113Q
VL: B14 VL
notes: as m1, one VH change

T2 sequence (chain, as listed by the source limits assumed): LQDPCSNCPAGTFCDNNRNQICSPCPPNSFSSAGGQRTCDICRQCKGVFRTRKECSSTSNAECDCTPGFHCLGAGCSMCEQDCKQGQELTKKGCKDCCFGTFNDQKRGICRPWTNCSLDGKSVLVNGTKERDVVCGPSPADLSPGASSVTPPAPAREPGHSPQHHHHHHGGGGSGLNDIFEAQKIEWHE

For the first experiment, the target named is T1, CD3 epsilon homodimer protein (UniProt P07766 23-126).
T1 construct: also called CD3 (CD3 epsilon)
T1 sequence (P07766 23-126): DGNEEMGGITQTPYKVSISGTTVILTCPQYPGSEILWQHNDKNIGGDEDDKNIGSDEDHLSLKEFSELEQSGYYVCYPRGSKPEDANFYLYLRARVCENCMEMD
Put plainly: SPR, CD3 epsilon homodimer on chip, one-arm antibody as analyte.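 Note: surface plasmon resonance at 25 °C with CD3 epsilon homodimer amine-coupled to a CM4 sensor chip, antibody injected as analyte, HBS-EP+ as running buffer.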
Protocol: An appropriate amount of CD3 epsilon homodimer protein was immobilized onto Sensor chip CM4 (GE Healthcare Japan Corp.) by the amine coupling method. Then, the antibody having an appropriate concentration was injected thereto as an analyte and allowed to interact with the CD3 epsilon homodimer protein on the sensor chip. Then, the sensor chip was regenerated by the injection of 10 mmol/L glycine-HCl (pH 1.5). The assay was conducted at 25 degrees C., and HBS-EP+(GE Healthcare Japan Corp.) was used as a running buffer. […] Each parameter was calculated using Biacore T200 Evaluation Software (GE Healthcare Japan Corp.).
Take B1: the “KD ratio (KD of CE115HA000/KD of altered form)” value (from here on “KD ratio”) is 1.3.

For B2, the “KD ratio” value came to 0.57.

As to B3, the “KD ratio” value was found to be 0.7.

For the molecule B4, the “KD ratio” value is 1.2.

For the molecule B5, the “KD ratio” value was determined as 0.98.

B6: the “KD ratio” value was 0.79.

Take B7: the “KD ratio” value was determined as 0.66.

As to B8, the “KD ratio” value is 1.01.

As for B9, the “KD ratio” value is 0.77.

Regarding B10, the “KD ratio” value came out at 0.92.

Consider B11, for which the “KD ratio” value was determined as 0.59.

As for B12, the “KD ratio” value was 0.51.

B13: the “KD ratio” value was found to be 0.96.

Another experiment has as its target T2, Human CD137 ECD (human).
T2 construct: also called 4-1BB
Briefly: SPR, vs parent H183/L072. Background: In SPR one partner is held on a chip, and binding of the other changes the refractive index at the surface.
With B14, the “fold change of affinity” value was found to be 0.6 fold.

In the case of B15, the “fold change of affinity” value turned out to be 0.7 fold.

As for B16, the “fold change of affinity” value was found to be 1.6 fold.

For B17, the “fold change of affinity” value was 0.7 fold.

B18: the “fold change of affinity” value is 1 fold.

Consider B19, for which the “fold change of affinity” value was determined as 0.7 fold.

As to B20, the “fold change of affinity” value was 0.3 fold.

As to B21, the “fold change of affinity” value was 0.3 fold.

With B22, the “fold change of affinity” value was 0.7 fold.

With B23, the “fold change of affinity” value was 0.6 fold.

Take B24: the “fold change of affinity” value came to 1.1 fold.

On to B25, for which the “fold change of affinity” value worked out at 1.7 fold.

Turning to B26, the “fold change of affinity” value turned out to be 0.6 fold.

Take B27: the “fold change of affinity” value turned out to be 0.5 fold.

As to B28, the “fold change of affinity” value came to 3.3 fold.

Consider B29, for which the “fold change of affinity” value amounted to 2.2 fold.

As for B30, the “fold change of affinity” value worked out at 0.5 fold.

As for B31, the “fold change of affinity” value came to 0.4 fold.

With B32, the “fold change of affinity” value is 3.3 fold.

Regarding B33, the “fold change of affinity” value was 1.9 fold.

Regarding B34, the “fold change of affinity” value was 0.9 fold.

Take B35: the “fold change of affinity” value turned out to be 0.8 fold.
